The data set is described as follows: label from the status in PepcDB records.
On to “MSSTSFTDLLGSSGVDCYEDDEDLRVSGSSFGGYYPERTGSGLPKFKTAQPPPLPISQSSHNFTFSDYLDSPLLLSSSHSLISPTTGTFPLQGFNGTTNNHSDFPWQLQSQPSNASSALQETYGVQDHEKKQEMIPNEIATQNNNQSFGTERQIKIPAYMVSRNSNDGYGWRKYGQKQVKKSENPRSYFKCTYPDCVSKKIVETASDGQITEIIYKGGHNHPKPEFTKRPSQSSLPSSVNGRRLFNPASVVSEPHDQSENSSISFDYSDLEQKSFKSEYGEIDEEEEQPEMKRMKREGEDEGMSIEVSKGVKEPRVVVQTISDIDVLIDGFRWRKYGQKVVKGNTNPRSYYKCTFQGCGVKKQVERSAADERAVLTTYEGRHNHDIPTALRRS”, for which the protein production result was “failed”.
Consider “MRDWPAFLLALLVAFALWYSLQERAPVVERSLKVPLQVVGLGEGRRALGLPREVLLRLRGPAPLLEGRALPVSAYLDLSGAEGEVVREVRVAAPQGVEVLEVVPARVGVVVEVEAQRQIPVEVLAQGAWVLTDPAFVEAVGPESQVEAAVSAVGLDLGDEVVLFPLGPEGPLEGVELRPNRVRVVERREALFLKEVPLSLNPPPGRRLLDYAPKTVRLVGPREALEGLAGVTATLQEALGPGEVEVAVAPDLPPGVHTLGPVRVRVALELEHHHHHH”, for which the protein production result is “failed”.
As for “MRCANCGNELKAGSLYCDVCGHPVQIVPDYNEFDDYLDNLVGNDDRRTDGQKTAKPVSDRTIRFDDPVREQLHSAGQWNGQKTDRMSQSVKQQVRQAQTGEQQSQTKQPCEKPQSDGQRAKRAQQKKIIIISAVVCAVAIVILIAAITRNVSRSHDNSFDYQVKQAKAAYSAGNINSAVSYYEKALSIDSDNTDVRFALADIYMSKKDYDAALVLYQEIINIDPKSKEAYKQLISIYESKKDYDAIVALRESAKDASVLKLFADYTVSKPQFSKSSGKYGETMELSIDADSDTKIYYSYDSDDPLTRGERYYSPITLDKEGTYEITAVAVDDRGIKSEVASAKYEIEFEAPDAPEIDPDGGTFGAQTDITITVPENCKVYYTWDSSDPSAASTEYTAPIPVPEGNNVLSVIAIDQNTGKCSDIYRSRFEFYMN”, the entry is “failed”; as for “MRRLNRFKAPDEKVNTLFQVYKTISFWKVVKNTVVVEFGRFFPWMGGKRNIYRACLGMKIGKKTAIAYKVMPDLFFPEKITIGENSIIGYHTTILTHEYLLSEYHVGEVVIGKNVMVGANVTILPGIEIGDGAIVAAGAVVSKDVPPESFAYGNPLVIKEKAALEHHHHHH”, “not failed”; as for “MAVTHRTRRPLRAANKTTNAASLGATCSRQQRARLVHCVGRRTNCLAPALCSPRFTAIPRWSSNAMSMSLADARYLFNRILGLIHRSMASMRTRGWRATWQRIRVHTQAPPVALGTPLWLPQPAPFAAFALPHSAAPRVSVVIPVYNHIAHTLACLRSLAAHPPLVDVEIIVVDDGSSDATAEQLPQVAGLHYHLRASNGGFIAACNDGIALARGDFVVLLNNDTIPQPGWLDRLIDTFAQHPSAGLIGAQLVYPDGRLQESGGVVFGDGSAWSYGRFESSDDPRYAYVRAMDYCSGAAIALPRTLLQTLGGLDRRYMPAYYEDTDLAFAVRAAGYQVLVQPASVVVHDEGTSNGTDTRTGVKAYQVRNQNVFAEKWQQALKAQLPVGTVPGPALLHRGQRQVLILDECVPQPDRDSGSLRQFNLIRLLREEGAHVVFVPTRREHAGRHTQALQQLGAEVWYAPFLEGVGSWLRTHGARFAVVLLVRHHVAHACLPLLKQYAPQARTLFDTVDLHYLRERRGAEVAGDANLLHGAERTRLRELEIMAATDVTLLVSAAEQAQLRTDAPHIRTALLSNLHDVAGSGHSFAQRRDLVFVGGFRHPPNVDAVQWFISAIFPQVRAQLPDVVFHCIGADLPDALKLLADECTGVQLHGHVPDLVPFMDNARIAVAPLRFGAGVKGKINLSMAHGQPVVGTTCAVEGMHLRDGEDVCVADDANAFAAAIVRLYQDAALWQRLADNGLRNVAEYFSLDAARATVRALFIAE”, “failed”.
For “MAMMAKHQAVKKIFDQIATKYDLIDTIISLGLDQHWRRVLVSSLGLREGMRCLDCGAGSGKVTELIYFRCGGCDVTALDITDSMFNPELKKYVKFVVSPAESLPFPDASFDRVSSAFLTRNLADIDRYFAEVYRVLRPGGVFVNMDIYNPTRPVISEFFSLYFYRFVPFFGNRATGSKNYTYLANTVKYFHRPSVISQKLADRGFSVEATDLFFGAVYLHRSVKPEGRGLEHHHHHH” the value was “failed”.
As for “MPKQTGNARNPFVLLALFILVCSGGCATYPISHDKAVPVARGALFEYPYFHDQVTGIAVSGQGRIFVNFPRWDKDPLYSVAEVLPDGSLRPYPDHGWNRWGADETAHPEAHFICVQSVFVDHSDFLWILDPASPAFNGVVPGGAKLVKVNLKTDQVERVIPFAPSAAPHESYLNDVRIDPEGNFAFITDSGKGAIVVVDLESGKARRLLSGHPSTKAEPGYVPVIEGKELRNEDGTVPKIHADGIALDSRGEYLYYHALVGRTLYRIRTSFLKDPSLPEKDLENHVERIAETGAADGMLMDAQDNLYLTALEENAVKRYRPSEPTLNTIIQGGLHWPDSLAISPDNYLYVTDSQINLAPRFNHGKDLRIIPYKFFKTWLMPFSHDGLLPP”, the entry is “failed”.
Turning to “MKYLCLIYFDEAKLAAVPAEELAAIVDECMTYSDQLGKAGHYIASHALQSVQTATTLRHQGGRLAMTDGPFAETKEQLGGFYLIEARDLNQALQIAAKIPPGRLGCVEVRPVKEWE”, the protein production result was “not failed”.
For “MESSFSFGVILAVLASLIIATNTLVAVAVLLLIHKNDGVSLCFTLNLAVADTLIGVAISGLLTDQLSSPSRPTQKTLCSLRMAFVTSSAAASVLTVMLITFDRYLAIKQPFRYLKIMSGFVAGACIAGLWLVSYLIGFLPLGIPMFQQTAYKGQCSFFAVFHPHFVLTLSCVGFFPAMLLFVFFYCDMLKIASMHSQQIRKMEHAGAMAGGYRSPRTPSDFKALRTVSVLIGSFALSWTPFLITGIVQVACQECHLYLVLERYLWLLGVGNSLLNPLIYAYWQKEVRLQLYHMALGVKKVLTSFLLFLSARNCGPERPRESSCHIVTISSSEFDG” the value was “failed”; for “CSEVNVVKERPKTDEHKSYSCSFKGCTDVELVAVICPYCEKNFCLRHRHQSDHDCEKLEVAKPRMAATQKLVR”, “not failed”.
With “LDPGLQPGQFSADEAGAQLFAQSYQSSAEQVLFQSVAASWAHDTNITAENARRQEEAALLSQEFAEAWGQKAKELYEPIWQQFTDPQLRRIIGAVRTLGSANLPLAKRQQYNALLSQMSRIYSTAKVCLPQKTATCWSLDPDLTNILASSRSYAMLLFAWEGWHNAAGIPLKPLYEDFTALSNEAYKQDGFTDTGAYWRSWYNSPTFEDDLEHLYQQLEPLYLNLHAFVRRALHRRYGDRYINLRGPIPAHLLGDMWAQSWENIYDMVVPFPDKPNLDVTSTMLQQGWQATHMFRVAEEFFTSLELSPMPPEFWEGSMLEKPADGREVVCHASAWDFYNRKDFRIKQCTRVTMDQLSTVHHEMGHIQYYLQYKDLPVSLRRGANPGFHEAIGDVLALSVSTPEHLHKIGLLDRVTNDTESDINYLLKMALEKIAFLPFGYLVDQWRWGVFSGRTPPSRYNFDWWYLRTKYQGICPPVTRNETHFDAGAKFHVPNVTPYIRYFVSFVLQFQFHEALCKEAGYEGPLHQCDIYRSTKAGAKLRKVLRAGSSRPWQEVLKDMVGLDALDAQPLLKYFQLVTQWLQEQNQQNGEVLGWPEYQWHPPLPDNYPEGIDLVTDEAEASKFVEEYDL”, the protein production entry is “not failed”.
Regarding “DRRYKWQTVVSEQLVGAGFNEILNNSLTAGSYYEGLKTHPREMAVELMNPLSQELNCMRQTLLFGGLETLSHNLRRKHLSLYLFEWGKCYRFHAAKRTDETPLSAYAEDDRLGIWICGQRVHNSWAHPEEPTSVFELKAVVEQVLCRVGIETGAYTLETADNDLYASAMEVKTRSGKLLGTFGTVSTEQIKRFDIEQPVYFAELLWDALMSESARYKLEARD”, the protein production result is given as “failed”.
Consider “MSELVINNNIVNDLLIKQFTNYVFMMIVTDIKGNIIYANKKYCQFNHINFESIKNKRYNLFYLVDENQDVFSNISDNKEVIRLEAKNPNKNKQEVWEDINIVPIFDKNNLISHYAFLSLDITD”, for which the protein production entry is “failed”.
For “MSVKSVLVFLSVSGSTMPMLILESDSIAEVKLRIQTCNGFRVRRQKLVFSGRELARNASRVKDYGVTGGSVLHLVLKLYDP” the value was “failed”; for “MFAQLVMGPAGSGKSTYCHALQQHGEIVGQLVHVVNLDPAAERFEYKPVADIRDLITVTDVAEELSLGPNGSLVYCMEYLLEDQDWLEQVLSETAEDDYLVFDMPGQIELYTHFECVRQFVYVLQSQFSMRVCSIFLLDAQFLADASKFFAGSLTAMAAMLHLGLPHLNVLSKADLLRHRIEHRDNTLEPLSSDAEAPNSDEALDEFLERFLNPDIQSLVSELSEQMDTRYRALNERIGALLEDYAIVQFVPYSATDEDSIGELLLRANLLLQYDDDRDVRIHPELD”, “failed”.
Regarding “MLIRPATTADFDALRAIELAAFETLRAAGAVSGSASASTDQQLQRYLDHGLLDVACDQSGEPIGFCGGYIAESFLHIGEMDVHPAWQRQGVGRRLLTALLEEARARKADGATLTTDRLVPFNAPFYASLGFRPLADDELPAKLREILDAEANMGLDPDRRIAMMLRF”, the protein production entry is reported as “failed”.
In the case of “MNKWVITSLFAISTLSASVASALEVRYMATPQQSTWQMATNTPLECRLVHPIPNYGDAEFSSRAGKKINLDFELKMRRPMGDTRNVSLVSMPPVWRPGEGADRITNLQFFKQFDGYIGGQTAWSLLSELEKGRYPTFSYQDWQSRDQRIEVALSSVLFQQPYNEFSDCISKLLPYSFEDISFTILHYDQGTSVELNKASQKRLAQIAEYVRYNQDIDLVLVSTYTDSTDTNNNSQNLSEQRAEVLREYFKSIGLPEDRIQVQGYGKRRPIADNASPIGKDKNRRVVISLGRTQV”, the protein production result was “failed”.
For “MADSDSNEVLIEEIDSNDVPENELEQFQETEPLRVVDIIDCDTDGERRCIADDEEEGALIKRYVQGVQCLEFPDFCTKLEASDEDEEGNDEEPSEAAGSIEKPNTSAQAKTSQEQSTGSGRSGGGGFRKSQLSTALQGLMGEANLSFVYGRYETAERICMEIIRQNPLASEPFYTLAEIYENRDEVKFLNFSTLAAHLNPQDRDMWIRVSDLLVQQGNLARARLIYTKAIKMLPKVYQLRLRKAQLLQKMGETNASMFTYLKMLPLMPPDEWKMCLNTAKNVARYFHVLEKHSLALEAMEGAYSVCGARFTLEDINIYLELLILNKQYAKVLRCLRERTNFELENDQEESLELIYFCEIPDDYVPELRAKLCVSLIHMRAHHLLGYLIQNVQEHITLTADRVELYMDITEALMQEHKYAEAIALMSPITDGDTVECPAFVWLRQAECLRQLNRTNEAIQSYEKVVQLAPFCYDARFTLSALLKQQGRHEEAVQALEQPGEAEGQPLIARLLYERCVMLQQIGRIEEFLDVGYALLSRHSIKLYNREEMMAAANGGSAYNSESLKTIIQMRSKAVDNSAEQDLQDPAKNAASETSDLTVKDEFELFRELVRTAFKHGMHSAAEKICFAMVTTKRFTYYHHEIERIMVLTCYYNDDCAIAFSYLRELIAKQPSQTTLWNMLSLMIQKGDEVRYYRYMRRLMQRHPVDTKPMRIFQGHYHLNCASFKYALNIYMPILRENPDPLVALCIAVAFNQLSLQKKVLRKSASVAQAVAFGQRYKELRSAGHELADCAAQQEIFYNIGRIYHQANILHLAVDYYEKALAVPVHPLIAEHESTLGLQHEVAFNLHLIYRANGNKWKARQYLMRYCVV” the value was “failed”.

The values above are taken from a protein production outcome set (Wang et al. 2014).
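Also: failed if final PepcDB status was selected cloned or expressed and not failed if soluble or beyond.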
